Values of other authors in PMC7755605.

Target: TRAF6 (Homo sapiens) (UniProt Q9Y4K3)
Sequence (Q9Y4K3 whole entry): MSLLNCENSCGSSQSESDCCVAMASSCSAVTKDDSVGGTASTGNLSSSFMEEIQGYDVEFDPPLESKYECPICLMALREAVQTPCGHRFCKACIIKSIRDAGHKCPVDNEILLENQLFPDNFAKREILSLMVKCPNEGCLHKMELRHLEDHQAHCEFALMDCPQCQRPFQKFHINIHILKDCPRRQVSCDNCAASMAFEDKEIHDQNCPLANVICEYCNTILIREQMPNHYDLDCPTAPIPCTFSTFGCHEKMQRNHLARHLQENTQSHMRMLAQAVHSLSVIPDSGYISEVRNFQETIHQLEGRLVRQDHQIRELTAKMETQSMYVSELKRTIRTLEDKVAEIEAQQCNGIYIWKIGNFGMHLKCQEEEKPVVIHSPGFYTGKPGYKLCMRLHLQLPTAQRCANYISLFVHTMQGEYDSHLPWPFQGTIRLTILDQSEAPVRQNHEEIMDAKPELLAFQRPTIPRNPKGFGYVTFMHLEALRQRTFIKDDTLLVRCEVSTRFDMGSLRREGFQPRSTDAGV

Chain of TRANCE-R (Q9Y6Q6 30-616): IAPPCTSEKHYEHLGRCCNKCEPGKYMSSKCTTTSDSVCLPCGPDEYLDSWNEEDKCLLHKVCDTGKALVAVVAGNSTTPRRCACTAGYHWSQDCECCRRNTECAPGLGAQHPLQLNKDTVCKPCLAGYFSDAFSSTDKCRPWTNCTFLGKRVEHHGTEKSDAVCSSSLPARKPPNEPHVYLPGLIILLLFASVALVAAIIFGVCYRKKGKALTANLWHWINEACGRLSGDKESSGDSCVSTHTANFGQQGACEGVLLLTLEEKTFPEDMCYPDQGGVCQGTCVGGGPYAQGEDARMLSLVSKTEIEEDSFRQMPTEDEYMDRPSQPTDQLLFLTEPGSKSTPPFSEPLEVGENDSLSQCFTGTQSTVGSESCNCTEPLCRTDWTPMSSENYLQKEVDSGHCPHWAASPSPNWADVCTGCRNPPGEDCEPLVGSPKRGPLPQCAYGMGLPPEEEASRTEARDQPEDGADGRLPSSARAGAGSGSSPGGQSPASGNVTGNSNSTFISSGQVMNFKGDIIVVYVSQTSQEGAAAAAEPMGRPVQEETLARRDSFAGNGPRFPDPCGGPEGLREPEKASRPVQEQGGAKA

Kd: 84 µM
Substance: TRANCE-R (from UniProt Q9Y6Q6)
